According to US20210087556:

How the values were obtained:
[1] = biological target: GST-fusion SMAD3 protein (Sigma-Aldrich Co. LLC.) (UniProt P84022)
[2] = biological target: FLAG-tag-labeled human SMAD3, expressed in LL29 cells from expression vector pEZ-M11 Flag-hSmad3 (UniProt P84022)
Sequence of FLAG-tag-labeled human SMAD3, expressed in LL29 cells from expression vector pEZ-M11 Flag-hSmad3 (P84022 whole entry, looked up): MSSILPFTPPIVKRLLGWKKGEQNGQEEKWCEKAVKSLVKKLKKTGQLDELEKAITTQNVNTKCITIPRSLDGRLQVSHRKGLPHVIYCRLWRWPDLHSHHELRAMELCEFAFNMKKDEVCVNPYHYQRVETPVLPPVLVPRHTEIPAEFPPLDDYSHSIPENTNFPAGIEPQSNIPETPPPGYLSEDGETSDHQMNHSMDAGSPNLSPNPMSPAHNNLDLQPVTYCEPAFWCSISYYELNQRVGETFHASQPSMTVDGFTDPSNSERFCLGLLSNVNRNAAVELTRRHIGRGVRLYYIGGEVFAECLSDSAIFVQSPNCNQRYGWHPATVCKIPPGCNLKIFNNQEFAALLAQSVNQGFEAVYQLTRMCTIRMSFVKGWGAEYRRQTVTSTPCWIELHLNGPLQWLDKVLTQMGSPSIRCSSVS

Sequence of His-fusion NEK6 protein (Eurofins Scientific SE) (chain, as listed by the source): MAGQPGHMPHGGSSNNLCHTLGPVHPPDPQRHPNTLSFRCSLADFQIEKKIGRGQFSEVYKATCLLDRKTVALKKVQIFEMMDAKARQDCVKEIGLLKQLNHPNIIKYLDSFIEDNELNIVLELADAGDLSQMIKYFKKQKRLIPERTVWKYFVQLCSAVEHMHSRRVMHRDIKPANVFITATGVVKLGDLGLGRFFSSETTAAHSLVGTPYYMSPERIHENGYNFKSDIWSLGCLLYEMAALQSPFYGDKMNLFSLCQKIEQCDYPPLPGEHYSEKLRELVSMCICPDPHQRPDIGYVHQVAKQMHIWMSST
Sequence of GST-fusion SMAD3 protein (Sigma-Aldrich Co. LLC.) (P84022 whole entry, looked up, the tested form may be a part): as the sequence (P84022 whole entry, looked up) above

Substance	amount of phosphorylated SMAD3 (Western blot after in vitro kinase reaction with purified proteins) [1]	amount of phosphorylated SMAD3 protein (Western blot of anti-FLAG coimmunoprecipitate) [2]
His-fusion NEK6 protein (Eurofins Scientific SE)	By using NEK6 protein, the amount of phosphorylated SMAD3 was elevated.	
human NEK6 protein (NIMA-related serine/threonine kinase 6), expressed in LL29 cells from expression vector pEZ-M02 Nek6		transfection of a human NEK6 expression vector caused the amount of phosphorylated SMAD3 protein to be elevated
